Measured values taken from patent US20260125468A1 (NONA BIOSCIENCES SUZHOU, published 2026).
Substitutions are numbered along the chain they refer to. In names and notes the source's numbering stands.

Experiments:
[1] = biological target: T1, CD3/TCR complex on Jurkat cells (ATCC, TIB-152) and Jurkat-NFAT-Luc reporter cells (human, UniProt P07766 23-207; P04234 22-171; P09693 23-182; P20963 22-164); test: FACS on Jurkat cells, purified antibody [A]
T1 construct: whole, on cells; also called CD3/TCR-positive Jurkat cells; TCR/CD3 complex
T1 sequence (P09693 23-182, chain 3 of 2): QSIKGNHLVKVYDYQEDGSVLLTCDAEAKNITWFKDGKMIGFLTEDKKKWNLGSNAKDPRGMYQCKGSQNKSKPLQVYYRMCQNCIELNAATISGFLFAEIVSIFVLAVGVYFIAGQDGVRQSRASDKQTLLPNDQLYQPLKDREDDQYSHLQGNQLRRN
T1 sequence (P20963 22-164, chain 4 of 2): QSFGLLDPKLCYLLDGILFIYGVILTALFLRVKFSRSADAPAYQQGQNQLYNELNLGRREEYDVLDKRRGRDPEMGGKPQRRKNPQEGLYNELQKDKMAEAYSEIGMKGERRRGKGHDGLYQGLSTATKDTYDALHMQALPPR
Procedure: The binding activities to target cells for the supernatants A1-monoFc (PR005860) and E2-monoFc (PR005861) were evaluated by FACS. The supernatants of the recombinant antibodies (i.e. A1-monoFc, E2-monoFc) were diluted from bulk solution to 8 different concentrations by 3-fold serial dilution. […] The cells were washed twice with staining buffer and subjected to flow cytometry. The data were processed by FlowJo v10 (FlowJo, LLC) and non-linear curve fitting analyzed by GraphPad Prism 8.
The binding activities to Jurkat and J.RT3-T3.5 cells for purified A1-HCAb (PR006364), E2-HCAb (PR006365) were determined by FACS, following the method described in Example 2. As shown in (A) and (B of FIG. 8, PR006364 and PR006365 can bind to Jurkat cells but not to J.RT3-T3.5 cells, which is consistent with the result in FIG. 1.

[2] = biological target: T2, CD3 on human T cells (human PBMCs or isolated T cells used as effector cells) (human, UniProt P07766 23-207; P04234 22-171; P09693 23-182); test: cell-based or functional assay
T2 sequence (P07766 23-207, chain 1 of 3): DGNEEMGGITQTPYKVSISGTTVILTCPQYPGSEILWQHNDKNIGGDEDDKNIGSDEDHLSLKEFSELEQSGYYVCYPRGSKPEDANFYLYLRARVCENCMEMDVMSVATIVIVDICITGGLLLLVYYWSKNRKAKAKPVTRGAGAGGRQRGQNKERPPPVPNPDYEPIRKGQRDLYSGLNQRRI
T2 sequence (P04234 22-171, chain 2 of 3): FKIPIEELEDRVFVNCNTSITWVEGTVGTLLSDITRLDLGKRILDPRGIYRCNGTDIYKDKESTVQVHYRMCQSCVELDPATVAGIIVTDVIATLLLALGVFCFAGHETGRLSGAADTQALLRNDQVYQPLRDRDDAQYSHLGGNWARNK
T2 sequence (P09693 23-182, chain 3 of 3): as the sequence (P09693 23-182, chain 3 of 2) above

[3] = biological target: T2, CD3 on human T cells (human PBMCs or …); test: cell-based or functional assay; remark: listed apart in the source
[4] = biological target: human CD3E&D heterodimer protein (construct not specified; FIG. 9A and FIG. 12) (human, UniProt P07766 23-126; P04234 22-105); test: ELISA on coated human CD3e&d heterodimer protein (construct not named on the sheet)
[5] = biological target: T3, Biotinylated human CD3e&d protein (Acro Biosystems, CDD-H82W6) (human, UniProt P07766 23-126; P04234 22-105, biotinylated protein; chain and site not stated); test: BLI (Octet RED96e), biotinylated antigen on SA biosensors, antibody 0.375-12 nM
T3 construct: Bought protein loaded on SA Octet biosensors; also called human CD3 protein
Procedure: To determine the binding affinities of anti-CD3 antibodies to human or cynomolgus monkey CD3e&d heterodimer proteins, bio-layer interferometry (BLI) assays were carried out by using Octet® RED96e.
Biotinylated human CD3e&d protein (Acro Biosystems, CDD-H82W6) or biotinylated cynomolgus CD3e&d protein (Acro Biosystems, CDD-C82W6) was first loaded onto the surface of SA Octet biosensors (Sartorius, 18-5019) to reach capture levels between 0.5-0.8 nm. The loaded biosensors were then dipped in wells containing 2-fold serial dilutions of testing antibodies to detect association signals, followed by dissociation steps in wells containing kinetic buffer. The association phase was 180 seconds, and the dissociation phase was 900 seconds. The sensorgrams were recorded, and the reference signals were subtracted before curve fitting using ForteBio Data Analysis 11.0 software. Association rates (kon) and dissociation rates (koff) were calculated using a simple one-to-one Langmuir binding model. The equilibrium dissociation constant (KD) was calculated as the ratio of koff/kon.

[6] = biological target: T4, hCD3e-his, Human CD3 epsilon Protein with His Tag (Acro Biosystems, CDE-H5223) (Human, UniProt P07766 23-126); test: ELISA, plate coated with human CD3e-his at 1 µg/mL, anti-human IgG Fc-HRP [E]
T4 construct: Bought protein; also called human CD3E monomeric protein; monomeric CD3E; not shown: His Tag
Procedure: (§1) ELISA assays were conducted as briefly described: CD3 proteins were coated onto ELISA plates at 1 μg/mL; testing antibodies OKT3 and PR006364 (A1-HCAb) were diluted from 2 μg/mL to 8 different concentrations by 3-fold serial dilution, or testing antibodies PR006370 (SP34) and PR010991 (3G11-HCAb) were diluted from 100 nM to 11 different concentrations by 2-fold serial dilution; secondary antibody (anti-human IgG Fc-HRP) was used to detect PR006364, PR006370 and PR010991, and secondary antibody (anti-mouse IgG Fc-HRP) was used to detect OKT3 binding signal. The absorption signal at 450 nm (OD450) was recorded by plate reader (Molecular Devices, SpectraMax), and the data were processed and non-linear curve fitting analyzed by GraphPad Prism 8.

[7] = biological target: T5, cynoCD3e&d-his, Cynomolgus CD3 epsilon & CD3 delta Heterodimer Protein (Acro Biosystems, CDD-C52W4) (Cynomolgus, UniProt Q95LI5 22-117; Q95LI8 22-105); test: ELISA, plate coated with cyno CD3e&d-his at 1 µg/mL, anti-human IgG Fc-HRP [C]
T5 construct: Bought protein; also called cynomolgus CD3E&D heterodimer protein; not shown: His Tag fused to C-terminus of CD3 epsilon chain; Flag Tag fused to C-terminus of CD3 delta chain
T5 sequence (Q95LI5 22-117, stated change not applied, chain 1 of 2): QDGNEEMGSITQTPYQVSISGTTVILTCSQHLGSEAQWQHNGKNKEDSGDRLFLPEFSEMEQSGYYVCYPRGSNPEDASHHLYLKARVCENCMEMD
T5 sequence (Q95LI8 22-105, stated change not applied, chain 2 of 2): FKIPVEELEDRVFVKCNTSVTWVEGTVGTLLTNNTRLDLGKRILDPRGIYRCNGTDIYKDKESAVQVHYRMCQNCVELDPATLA
Procedure: as §1

[8] = biological target: T6, hCD3e&d-his, Human CD3 epsilon & CD3 delta Heterodimer Protein with His Tag (Acro Biosystems, CDD-H52W1) (Human, UniProt P07766 23-126; P04234 22-105); test: ELISA, plate coated with human CD3e&d-his at 1 µg/mL, anti-human IgG Fc-HRP [B]
T6 construct: Bought protein; also called human CD3E&D heterodimer protein; not shown: His Tag fused to C-terminus of CD3 epsilon chain
Procedure: as §1

[9] = biological target: T7, hCD3e&g-his, Human CD3 epsilon & CD3 gamma Heterodimer Protein with His Tag (Acro Biosystems, CDG-H52W5) (Human, UniProt P07766 23-126; P09693 23-116); test: ELISA, plate coated with human CD3e&g-his at 1 µg/mL, anti-human IgG Fc-HRP [D]
T7 construct: Bought protein; also called human CD3E&G heterodimer protein; not shown: His Tag fused to C-terminus of CD3 epsilon chain
T7 sequence (P09693 23-116, chain 2 of 2, one chain of several): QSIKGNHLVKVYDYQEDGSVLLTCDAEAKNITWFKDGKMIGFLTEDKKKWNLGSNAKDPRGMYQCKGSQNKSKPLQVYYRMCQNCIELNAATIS
Procedure: as §1

[10] = biological target: T8, human CD3e&d-llamaFc; test: ELISA, plate coated with human CD3e&d-llamaFc at 1 µg/mL, anti-human IgG Fc-HRP [A]
T8 construct: also called hCD3e&d-llamaFc; Human CD3 epsilon & CD3 delta Heterodimer Protein fused with Llama Fc (Acro Biosystems, CDD-H5258); not shown: The llama Fc, any linker to it, and which chain or chains carry it
T8 epsilon: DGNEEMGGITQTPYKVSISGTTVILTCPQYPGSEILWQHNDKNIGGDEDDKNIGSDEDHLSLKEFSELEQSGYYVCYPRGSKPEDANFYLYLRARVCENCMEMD
T8 delta: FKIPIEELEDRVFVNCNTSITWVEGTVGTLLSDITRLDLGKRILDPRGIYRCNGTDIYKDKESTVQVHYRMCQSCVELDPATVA
Procedure: as §1

B1: PR006365, anti-CD3 E2-HCAb hIgG1(C220S, AAG) (antibody, V domains shown)
VH: EVQLVESGGGLVQAGGSLRLSCAASGRTNGIPAMAWFRQAPGKEREFVAMAWSGGGTIYGDSVKNRFTISRNNAQNTISLQMSSLRPEDTALYFCAAGRTTSNKADHYNYWGQGTQVTVSS
notes: Heavy-chain-only antibody, human IgG1 Fc (C220S, L234A, L235A, P329G)
How did the “EC50 (read off the curve)” value [1] turn out when B1 was run?
Its value is roughly 9 nM.

B2: PR006002, anti-B7H4xCD3 VH(A1)-Fc-scFv(PR003366), hIgG1(dCH1, KiH, LALA) (bispecific antibody)
chain 1: not shown
chain 2: EIVMTQSPASLSVSPGERATLSCRASQSVSSNLAWYQQKPGQAPRLLIYGASTRATGIPARVSGGGSGTEFTLTISSLQSEDFAVYYCQQYKNWPFTFGPGTKLEIKGGGGSGGGGSGGGGSGGGGSQVQLVQSGAEVKKPGSSMRVSCKASEDTFSSYAISWVRQAPGQGLEWMGGTAPIFGTTNYAQKFQGRVTITADKSTSTAYMELSSLRSEDTAVYYCARGGPYFDYWGQGTLVTVSSASEPKSSDKTHTCPPCPAPEAAGGPSVFLFPPKPKDTLMISRTPEVTCVVVDVSHEDPEVKFNWYVDGVEVHNAKTKPREEQYNSTYRVVSVLTVLHQDWLNGKEYKCKVSNKALPAPIEKTISKAKGQPREPQVCTLPPSREEMTKNQVSLSCAVKGFYPSDIAVEWESNGQPENNYKTTPPVLDSDGSFFLVSKLTVDKSRWQQGNVFSCSVMHEALHNHYTQKSLSLSPGK
B2 was tested. Which “EC50 of T cell-mediated cytotoxicity to MDA-MB-468 (RTCA)” value [2] did it give?
Its value is 0.033 nM.

What about the “Max cytotoxicity (%) of T cell-mediated cytotoxicity to MDA-MB-468 (RTCA)” value [2] of the same binder?
Its value is 94.4%.

What about the “EC50 of T cell-mediated cytotoxicity to MDA-MB-468 (RTCA, human T cells, E:T 10:1)” value (“EC50 … (RTCA, human T cells, E:T 10:1)” below) [3] of the same binder?
The value was 0.00111 nM.

B3: PR010987, anti-B7H4xCD3 S140-Fc-scFv(PR003366), hIgG1(dCH1, KIH, AAA) (bispecific antibody)
chain 1: EVQLVESGGGLVQPGGSLRLSCAASGRTSGIPAMAWFRQAPGKGLEWVAMAWSGGGTIYADSVKGRFTISRDNSKNTLYLQMNSLRAEDTAVYYCARGRSTSNRADQYNYWGQGTLVTVSSASEPKSSDKTHTCPPCPAPEAAGAPSVFLFPPKPKDTLMISRTPEVTCVVVDVSHEDPEVKFNWYVDGVEVHNAKTKPREEQYNSTYRVVSVLTVLHQDWLNGKEYKCKVSNKALPAPIEKTISKAKGQPREPQVYTLPPCREEMTKNQVSLWCLVKGFYPSDIAVEWESNGQPENNYKTTPPVLDSDGSFFLYSKLTVDKSRWQQGNVFSCSVMHEALHNHYTQKSLSLSPGK
chain 2: B2 chain 2 with G267A
With B3 as the binder, how does the “EC50 … (RTCA, human T cells, E:T 10:1)” value [3] read?
The value was 0.263 nM.

B4: PR010985, anti-B7H4xCD3 S138-Fc-scFv(PR003366), hIgG1(dCH1, KIH, AAA) (bispecific antibody)
chain 1: B3 chain 1 with V5L, A35S, F37V, R97A, R104Y
chain 2: B2 chain 2 with G267A
B4 was tested. Which “EC50 … (RTCA, human T cells, E:T 10:1)” value [3] did it give?
Its value is 2.91 nM.

B5: PR011628, anti-CD3 S135 HCAb hIgG1(C220S,AAG) (antibody, V domains shown)
VH: EVQLLESGGGLVQPGGSLRLSCAASGRTSGIPAMSWVRQAPGKGLEWVAMAWSGGGTIYADSVKGRFTISRDNSKNTLYLQMNSLRAEDTAVYYCAAGRSTSNRADQYNYWGQGTLVTVSS
notes: Humanized variant of PR006364; heavy-chain-only antibody
Does B5 bind [4]?
Result: binds

B6: PR011630, anti-CD3 S137 HCAb hIgG1(C220S,AAG) (antibody, V domains shown)
VH: B5 VH with G44E, L45R, W47F, R104Y, L116Q
notes: as for B5
Does B6 bind [4]?
Result: binds

B7: PR011632, anti-CD3 S140 HCAb hIgG1(C220S,AAG) (antibody, V domains shown)
VH: B5 VH with L5V, S35A, V37F, A97R
notes: as for B5
Does B7 bind [4]?
Result: binds

B8: PR011631, anti-CD3 S138 HCAb hIgG1(C220S,AAG) (antibody, V domains shown)
VH: B5 VH with R104Y
notes: as for B5
Does B8 bind [4]?
Result: binds

B9: PR011629, anti-CD3 S136 HCAb hIgG1(C220S,AAG) (antibody, V domains shown)
VH: B5 VH with G44E, L45R, W47F, L116Q
notes: as for B5
How did the Kd [5] turn out when B9 was run?
Its Kd is 0.168 nM.

What about the koff [5] of the same binder?
The koff was 0.00014 s⁻¹.

What about the kon [5] of the same binder?
Its kon is 833000 M⁻¹ s⁻¹.

B10: PR006370, anti-CD3 SP34 chimeric hIgG1(AAG) (antibody, V domains shown)
VH: EVQLVESGGGLVQPKGSLKLSCAASGFTFNTYAMNWVRQAPGKGLEWVARIRSKYNNYATYYADSVKDRFTISRDDSQSILYLQMNNLKTEDTAMYYCVRHGNFGNSYVSWFAYWGQGTLVTVSA
VL: QAVVTQESALTTSPGETVTLTCRSSTGAVTTSNYANWVQEKPDHLFTGLIGGTNKRAPGVPARFSGSLIGDKAALTITGAQTEDEAIYFCALWYSNLWVFGGGTKLTVLG
notes: Mouse/human chimeric antibody, human IgG1 Fc-silent variant (L234A, L235A, P329G)
What does the source list for B10?
EC50 (read off the curve) [6]: ~0.8 nM; EC50 (read off the curve) [7]: ~0.7 nM; EC50 (read off the curve) [8]: ~0.6 nM; EC50 (read off the curve) [9]: ~0.8 nM

B11: PR006364, anti-CD3 A1-HCAb hIgG1(C220S, AAG) (antibody, V domains shown)
VH: RIRLVESGGGLVQAGGSLRLSCAASGRTSGIPAMAWFRQAPGKEREFVAMAWSGGGTIYGDSVKNRFTISRDNTQNTIFLQMNSLKPEDTALYYCAAGRSTSNRADQYNYWGQGTQVTVSS
notes: Heavy-chain-only antibody, VHH fused to conventional human IgG1 Fc (C220S, L234A, L235A, P329G)
What does the source list for B11?
EC50 (read off the curve) [1]: ~2 nM; Kd [5]: 0.0342 nM; koff [5]: 2.49e-05 s⁻¹; kon [5]: 727000 M⁻¹ s⁻¹; EC50 (read off the curve) [10]: ~0.03 µg/mL; EC50 (read off the curve) [4]: ~0.7 nM
